Source: patent US20120277286A1, “COMPOSITIONS AND METHODS FOR THE TREATMENT OR PREVENTION OF MITOCHONDRIAL DISEASES” (The Government of the USA, as represented by the Secretary, …, priority 2009, published 2012)
Residue numbers refer to the chain shown, from its start. Numbers in names are those of the source. Where a SMILES comes first, the peptide text is derived from it. The star is where a group is joined. Cbz = O=C(OCc1ccccc1)*

Experiments:
Assay type in all cases: cell-based
HeLa cells [1] = assay: Parkin colocalization with mitochondria scored by confocal microscopy; conditions: for YFP-Parkin (wild type or indicated mutant) colocalization with mitochondria, % of cells: HeLa cells, 1 hour
Description: (§1) Cultured cells seeded in borosilicate chamber slides (Thermo Fisher Scientific) were transfected or cotransfected with YFP-Parkin, ECFP-Parkin, mCherry-Parkin, DsRed-Mito (Clontech Laboratories, Inc.), pcDNA3.1 (Invitrogen), vMIA, and/or Drp1K38A constructs using Fugene 6 (Roche). Parkin-myc was a gift from M. Cookson (National Institutes of Health, Bethesda, Md.). Cells were fixed 12-24 hours after transfection with 4% paraformaldehyde in PBS. Cells were stained with following primary antibodies: mouse monoclonal cytochrome c (BD), rabbit polyclonal Tom20 (Santa Cruz Biotechnology, Inc.), mouse monoclonal Parkin PRK8 (Santa Cruz Biotechnology, Inc.), rabbit polyclonal PMP70 (Invitrogen), and/or mouse monoclonal TRAP1 (Abcam); and with the following secondary antibodies: mouse and/or rabbit Alexa 488, 594, and 633 (Invitrogen). For assessment of mitochondrial membrane potential, cells were pulsed with 50 nM Mito-Tracker red (Invitrogen) for 15 min, washed, and incubated for an additional 10 minutes before fixation or imaging. For assessment of cell metabolic potential, cell nuclei were stained with Hoechst 33342 (Invitrogen).
Fixed cells and live cells in the FLIP assay were imaged using an inverted microscope (LSM510 Meta; Carl Zeiss, Inc.) with a 63×/1.4 oil DIC Plan Apo objective at 25° C. and 37° C., respectively. For the FLIP assay, a bleach region of interest (ROI) occupying approximately one eighth of the cell was positioned over a relatively mitochondria-free portion of the cytosol. Cells were alternately bleached (488 nm using a 30-mW argon laser at 75% power and 100% transmission for 150 iterations) and imaged (488 nm at 75% power and 2% transmission) for 10 minutes (—60 cycles over the length of the experiment). Two channel prebleach and postbleach images were obtained with 488 and 594 lasers to assess the position of mitochondria before and after bleaching. Circular ROIs with diameters of ˜1 and 5 μm, respectively, were placed over the mitochondria and cytosol of the target cell, and an ROI of 10 μm was placed over the control cell. Imaging of YFP-Parkin translocation in live HeLa cells was performed on a live cell imager system (UltraView LCI; PerkinElmer) at 35° C. with a 100×/1.45 α-Plan-Fluor objective.
Image contrast and brightness were adjusted in Photoshop (Adobe). Colocalization was assessed with line scans using MetaMorph (MDS Analytical Technologies). For analysis of mitochondrial membrane potential in cells, mitochondrial voxels in each image (the cytochrome c channel threshold was ≧400 au) were segregated into Parkin-positive (the YFP-Parkin channel threshold was ≧1,100 au) or Parkin-negative subsets, and MitoTracker intensity for each voxel was measured using Volocity software (Improvision). For each cell, the mean MitoTracker intensity per voxel was calculated for the Parkin-positive and Parkin-negative subsets. The difference in mean Mito-Tracker intensity between the Parkin-positive and Parkin-negative subsets was calculated using a paired t test. Western blotting HeLa cells stably expressing YFP-Parkin, HEK293 cells, and rat cortical neurons 2 days in vitro were harvested and fractionated as described previously (Karbowski et al., J. Cell Biol. 178: 71-84, 2007). Samples were run on SDS-PAGE and immunoblotted with the following antibodies: polyclonal rabbit anti-GFP (Invitrogen), mouse monoclonal anti-Parkin (PRK8), and mouse monoclonal anti-Porin 31HL (EMD).
(§2) Confocal microscopy of fixed samples, scoring of Parkin recruitment and Parkininduced mitophagy, and live cell imaging were performed as described previously (Narendra (2008) J Cell Biol 183: 795-803). Experiments in Mfn1/2 null cells were performed as described previously with minor modifications.
Confocal microscopy of fixed samples, scoring of Parkin recruitment and Parkin-induced mitophagy, and live cell imageing were performed as described previously (Narendra (2008) J Cell Biol 183: 795-803). […]

PINK1 = PINK1 accumulation by fractionation and immunoblotting
Text: (§3) For PINK1 experiments, cells were fractionated using the Mitochondria Isolation Kit (Pierce), according to manufacturer's specifications with slight modifications. To isolate integral membrane proteins, membrane fractions obtained as above were carbonate extracted with 0.1M Na2CO3 fresh cold buffer and membranes were pelleted, as described in the supplemental methods. For Parkin experiments, cells were fractionated as described previously, with minor modifications described in the supplemental methods (Narendra (2008) J Cell Biol 183: 795-803). The following primary antibodies were used: anti-Parkin (PRK8) monoclonal (Santa Cruz), anti-Tom20 polyclonal (Santa Cruz), anti-cytochrome c monoclonal (BD Biosciences), anti-PINK1 polyclonal (Novus Biologicals), anti-VDAC monoclonal (Calbiochem), anti-GAPDH polyclonal (Sigma-Aldrich), anti-Tubulin monoclonal (Sigma-Aldrich), anti-V5 monoclonal (Invitrogen), anti-GFP polyclonal (Invitrogen).
as §3, with “with slight modifications described in the supplemental methods. To isolate” for “with slight modifications. To isolate”, “minor modifications detailed in the” for “minor modifications described in the”, “supplemental methods (Narendra (2008) J Cell Biol 183: 795-803). The protease protection assay was performed as described previously (Chen (2005) J Biol Chem 280: 26185-26192). Cells were fixed and immunostained as described previously (Narendra (2008)” for “supplemental methods (Narendra (2008)”, “anti-GFP polyclonal (Invitrogen), anti-TIM23 monoclonal (BD Biosciences), and anti-Hsp60 monoclonal (Stressgen).” for “anti-GFP polyclonal (Invitrogen).”

HeLa cells [2] = assay: Parkin in mitochondria-rich membrane fraction, immunoblot; conditions: for translocation of YFP-Parkin variant to mitochondria-rich membrane fraction: HeLa, CCCP 1 hr, Western blotting
Text: as §3
as §3, with “with slight modifications described in the supplemental methods. To isolate” for “with slight modifications. To isolate”, “minor modifications detailed in the” for “minor modifications described in the”, “supplemental methods (Narendra (2008) J Cell Biol 183: 795-803). The protease protection assay was performed as described previously (Chen (2005) J Biol Chem 280: 26185-26192). Cells were fixed and immunostained as described previously (Narendra (2008)” for “supplemental methods (Narendra (2008)”, “anti-GFP polyclonal (Invitrogen), anti-TIM23 monoclonal (BD Biosciences), and anti-Hsp60 monoclonal (Stressgen).” for “anti-GFP polyclonal (Invitrogen).”

HeLa cells [3] = assay: Mitochondrial translocation of Parkin by imaging (Examples 4 and 5); conditions: HeLa stably expressing YFP-Parkin, MG132 for 8 hrs
Description: Cells were cultured in borosilicated chamber slides for imaging, 6-well plates for whole cell lysates, and 100 or 150 mm culture dish for subcellular fractionation. One day after seeding, cells were transfected with indicated constructs using Fugene HD (Roche) or Lipofectamine 2000 (Invitrogen) according to the manufacturer's guidelines.
For immunocytochemistry, cultured cells in borosilicated chamber slides were fixed with 4% paraformaldehyde in PBS (USB) and permeabilized with the indicated detergent. After 30 min blocking with 10% BSA in PBS, cells were stained with the following primary antibodies: antiTom20 polyclonal antibody (Santa Cruz Biotechnology, Inc.) and anti-cytochrome C monoclonal antibody (BD), or anti-Tom20 monoclonal antibody (BD) and anti-GFP polyclonal antibody (Invitrogen) and then with the following secondary antibodies: goat anti-mouse/rabbit IgG antibody conjugated with Alexa Fluor 594/647, respectively. In case of live cell imaging, cells were pulsed with 600 nM TMRE for 5 min to evaluate mitochondrial membrane potential or 10 nM Mitotracker Red for 30 min to see the mitochondrial morphology. Cells were imaged using an inverted microscope (LSM510 Meta; Carl Zeiss) with 63×/1.4 oil DIC Plan Apo objective. Image contrast and brightness were adjusted in LSM image browser (Carl Zeiss).

HeLa cells [4] = assay: Parkin-induced mitophagy, loss of mitochondria by immunocytochemistry; conditions: HeLa expressing YFP-Parkin variant, CCCP 24 hours
Description: as §1, §2
as §2, with “Parkin-induced” for “Parkininduced”, “imageing” for “imaging”, “modifications described in the supplemental methods (Narendra (2008) J Cell Biol 183: 795-803).” for “modifications.”

C[C@@H]1C[C@@H]([C@H](O)CC2CC(=O)NC(=O)C2)C(=O)[C@@H](C)C1 [cycloheximide, reference compound]
effect on CCCP-induced Parkin recruitment to mitochondria (HeLa cells [1]; HeLa cells expressing YFP-Parkin, added together with CCCP): blocked
YFP-Parkin colocalization with mitochondria, % of cells (HeLa cells [1]; HeLa, 10 μM CCCP 1 hr+100 μM CHX (30 minutes pretreatment)): 11.3±4.2%
effect on abundance of accumulated full length PINK1 (PINK1; HeLa, after 3 hours CCCP, continuous CCCP): little effect
effect on depolarization-induced accumulation of endogenous PINK1 (PINK1; HeLa, cycloheximide 90 minutes, CCCP 60 minutes, whole cell lysates and membrane fraction): blocked
effect on YFP-Parkin accumulation in mitochondrial enriched heavy membrane fraction (HeLa cells [2]; HeLa YFP-Parkin, CCCP plus cycloheximide): blocked

CC(C)C[C@@H](C=O)NC(=O)[C@H](CC(C)C)NC(=O)[C@H](CC(C)C)NC(=O)OCc1ccccc1 [MG132, reference compound] (Cbz-Leu-Leu-Leu-aldehyde)
appearance of short form of PINK1 (PINK1; HeLa treated with vehicle, 50 μM MG132 for final hour): ˜52 kDa band appears
mitochondrial translocation of Parkin (HeLa cells [3]): no mitochondrial translocation of Parkin was detected

B1: R275W: YFP-Parkin mutation in RING1 (protein, UniProt O60260 1-465, looked up, variant R275W)
E3 ubiquitin-protein ligase …: MIVFVRFNSSHGFPVEVDSDTSIFQLKEVVAKRQGVPADQLRVIFAGKELRNDWTVQNCDLDQQSIVHIVQRPWRKGQEMNATGGDDPRNAAGGCEREPQSLTRVDLSSSVLPGDSVGLAVILHTDSRKDSPPAGSPAGRSIYNSFYVYCKGPCQRVQPGKLRVQCSTCRQATLTLTQGPSCWDDVLIPNRMSGECQSPHCPGTSAEFFFKCGAHPTSDKETSVALHLIATNSRNITCITCTDVRSPVLVFQCNSRHVICLDCFHLYCVTRLNDWQFVHDPQLGYSLPCVAGCPNSLIKELHHFRILGEEQYNRYQQYGAEECVLQMGGVLCPRPGCGAGLLPEPDQRKVTCEGGNGLGCGFAFCRECKEAYHEGECSAVFEASGTTTQAYRVDERAAEQARWEAASKETIKKTTKPCPRCHVPVEKNGGCMHMKCPQPQCRLEWCWNCGCEWNRVCMGDHWFDV
modifications: YFP fusion
notes: YFP-Parkin mutation in RING1
YFP-Parkin (wild type or indicated mutant) colocalization with mitochondria, % of cells (HeLa cells [1]; 10 μM CCCP): 81.7±2.1%
cells with no mitochondria (HeLa cells [4]): 4.0±4%
translocation of YFP-Parkin variant to mitochondria-rich membrane fraction (HeLa cells [2]): increases localization in the membrane fraction

B2: R42P: YFP-Parkin with pathogenic UBL domain mutation (protein, UniProt O60260 1-465, looked up, variant R42P)
E3 ubiquitin-protein ligase …: B1 E3 ubiquitin-protein ligase … with R42P, W275R
modifications: YFP fusion
notes: YFP-Parkin with pathogenic UBL domain mutation
YFP-Parkin (wild type or indicated mutant) colocalization with mitochondria, % of cells (HeLa cells [1]; 10 μM CCCP): 34±5.3%
cells with no mitochondria (HeLa cells [4]): 22.0±2.0%
translocation of YFP-Parkin variant to mitochondria-rich membrane fraction (HeLa cells [2]): No membrane translocation was detectable

B3: C332S: YFP-Parkin engineered mutation in conserved RING cysteine (protein, UniProt O60260 1-465, looked up, variant C332S)
E3 ubiquitin-protein ligase …: B1 E3 ubiquitin-protein ligase … with W275R, C332S
modifications: YFP fusion
notes: YFP-Parkin engineered mutation in conserved RING cysteine
recruitment of mutant YFP-Parkin to mitochondria (HeLa cells [1]; HeLa, 10 μM CCCP, 24 hours): Mitochondrial recruitment was seen
recruitment of mutant YFP-Parkin to depolarized mitochondria (HeLa cells [1]; HeLa, CCCP 1 hr): completely disrupt
translocation of YFP-Parkin variant to mitochondria-rich membrane fraction (HeLa cells [2]): No membrane translocation was detectable
